From patent publication US20220306710A1 (YEDA RESEARCH AND DEVELOPMENT, published 2022)
Where no end group is shown, it is not given here.

T1: Tau2 peptide labelled with rhodamine (human, also: rhodamine isothiocyanate label, site not given here)
T1 construct: also called Tau2R; Tau-2R
T1 peptide: KPGGGQVEVKSEKLDFK

T2: Tau1 peptide labelled with rhodamine (human, also: rhodamine isothiocyanate label, site not given here)
T2 construct: also called Tau1R; Tau-1R
T2 peptide: GLGDRKDQGGYTMHQD


Tests used:
[1] = target: T1, Tau2 peptide labelled with rhodamine; assay: dot blot of mixed labelled peptides on nitrocellulose
Source text: (§1) FIGS. 2A-B. Confirmation of APP and Tau peptide binding by visualization and ELISA. A) Visualization of APP and Tau peptide binding labelled by fluorescein (F) or rhodamine (R). Single labelled peptides were loaded on nitrocellulose membrane [upper row (F) and middle row (R)]. Mixtures were loaded (lower row) from left to right: APP1F+Tau1R, APP1F+Tau2R, APP2F+Tau1R and APP2F+Tau2R. Last sample was a control of APP2F+APP1R. […] B) Peptide inhibition of Tau and APP protein binding. An ELISA plate was coated with Tau protein overnight (ON) at 4° C. PBS, single peptides or their combinations were incubated ON at 4° C. as well. Next day, the plate was washed and blocked with PBS+3% BSA for two hours at RT. The plate was washed again with PBS. Single peptides or their combinations were added to the coated plate for four hours at RT. The plate was washed and APP protein was added to all wells for ON incubation at 4° C. The plate was then washed and anti Aß was added, to test the ability of the different peptides to affect APP protein binding to the Tau coated plate. The plate was developed with anti-mouse HRP (materials and methods section). Samples were in triplicates. Significance labelled as p≤0.05*, p≤0.008**.
(§2) All four candidate peptides were labelled with fluorescein. APP1, Tau1 and Tau2 were also labelled with rhodamine for visualization of peptide binding.

[2] = target: T2, Tau1 peptide labelled with rhodamine; assay: as above
Source text: as §1, §2

Binder	binding result [1]	binding result [2]
HFQKAKERLEAKHRERMSQVMRE (also: fluorescein isothiocyanate label, site not given here, also called APP1F; App1F) [APP1 peptide labelled with fluorescein]	binds	binds
ATVIVITLVMLKKKQYTS (also: fluorescein isothiocyanate label, site not given here, also called APP2F) [APP2 peptide labelled with fluorescein]	no binding	no binding
